Assay [1] has as its target T1, purified recombinant monkey (macaque) CD27 (macaque).
T1 construct: The paragraph speaks of cynomolgus macaques as the model; the protein itself is only called macaque / monkey CD27; Captured with anti-Flag antibody in one format; also called monkey CD27
The assay can be described thus: ELISA on plate-bound monkey CD27, half-max binding. A general note: ELISA stands for enzyme-linked immunosorbent assay.

For assay [2], the target named is T2, recombinant purified human CD27 (human, UniProt P26842 20-191).
T2 construct: also called soluble or recombinant human CD27
T2 sequence: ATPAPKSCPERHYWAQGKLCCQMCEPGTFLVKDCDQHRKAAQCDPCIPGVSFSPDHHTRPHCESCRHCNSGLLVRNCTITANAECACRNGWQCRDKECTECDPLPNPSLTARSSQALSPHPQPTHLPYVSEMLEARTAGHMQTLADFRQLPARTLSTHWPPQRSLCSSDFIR
The assay can be described thus: ELISA on CD27-coated plates, half-max binding (C value of 4-parameter fit). As for the experimental part: Microtiter plates were coated with soluble or recombinant human or macaque CD27 in PBS, and then blocked with 5% bovine serum albumin in PBS. Protein A purified human mAbs and an isotype control were added at […] concentrations and incubated at 37° C. The plates were washed with PBS/Tween and then incubated with a goat-anti-human IgG Fc-specific polyclonal reagent conjugated to alkaline phosphatase at 37° C. After washing, the plates were developed with pNPP substrate (1 mg/ml), and analyzed at OD 405-650 using a microtiter plate reader.

Numbering of substitutions follows the chain as printed. Values joined by “and” are separate entries in the source; they are usually repeats but may differ in a detail not shown here. Identical values can stand only once.

B1: 1G5-1B9 (antibody, V domains shown)
VH: QVQLVESGGGVVQPGRSLRLSCAASGFSFSSYGMHWVRQAPGKGLEWVALLWYDGSHKDFADSVKGRFTISRDNSKNTLDLQMNSLRAEDTAVYYCAREGLAVPGHWYFDLWGRGTLVTVSS
VL: AIQLTQSPSSLSASVGDRVTITCRASQGISSALAWYQQKPGKAPKLLIYDASSLESGVPSRFSGSGSGTDFTLTISSLQPEDFATYYCQQFNTYPRTFGQGTKVEIK
notes: Human IgG from hybridoma
Usually EC50 stands for the concentration needed to bring the measured effect to its halfway point. Turning to B1, the EC50 in assay [1] is 0.065 µg/mL; in assay [2], 0.49 nM and 0.074 µg/mL.

B2: 1H8-B4 (antibody, V domains shown)
VH: QVQLVESGGGVVQPGRSLRLSCAASGFTFNIYDMHWVRQAPGKGLEWVAVIWYDGSNQYYADSVKGRFTISRDNSKNTLYLQMNILRAEDTAVYYCARGTHWGYFDYWGQGTLVTVSS
VL: B1 VL with A1D, L4M, A32W, G41E, L46S, D50A, S53N, E55Q, F91Y, T93S
notes: Human IgG from hybridoma
B2: the 50% effective concentration (EC50) was 0.105 µg/mL in assay [1]; 0.43 nM and 0.064 µg/mL in assay [2].

B3: 1F5-1H5 (antibody, V domains shown)
VH: QVQLVESGGGVVQPGRSLRLSCAASGFTFSSYDMHWVRQAPGKGLEWVAVIWYDGSNKYYADSVKGRFTISRDNSKNTLYLQMNSLRAEDTAVYYCARGSGNWGFFDYWGQGTLVTVSS
VL: B1 VL with A1D, L4M, S31R, A32W, G41E, L46S, D50A, E55Q, F91Y
notes: Fully human IgG from HuMAb mouse hybridoma, protein A purified; Human IgG1 is used as its isotype control; also called mAb 1F5; anti-CD27 mAb 1F5
Regarding B3, the EC50 in assay [1] is 0.12 µg/mL; in assay [2], 0.39 nM and 0.059 µg/mL.

B4: 3H12-1E12 (antibody, V domains shown)
VH: B3 VH with A24T, R87G, A88D
VL: B1 VL with A1D, L4M, S31R, A32W, G41E, L46S, D50A, E55Q, F91Y
notes: Human IgG from hybridoma; Two subclones (3H12-1C8 and 3H12-1E12) are both called 3H12; also called 3H12-1C8
Take B4: the EC50 in assay [1] was 0.123 µg/mL; in assay [2] it was 0.57 nM and 0.085 µg/mL.

B5: 2G9-1D11 (antibody, V domains shown)
VH: QVQLVESGGGVVQPGRSLRLSCAASGFTLSSHDIHWVRQAPGKGLEWVAVIWNDGSNKYYADSVKGRFTISRDNSTNSLFLQMNSLRAEDTAVYYCVRGTADLEHWDQGTLVTVSS
VL: DIQMTQSPSSLSASVGDRVTITCRASQGISSWLAWYQQKPEKAPKSLIYAASSLQSGVPSRFSGSGSGTDFTLTISSLQPEDFATYYCQQYNSYPLTFGGGTKVEIK
notes: Human IgG from hybridoma
Regarding B5, the half-maximal effective concentration (EC50) was 0.069 µg/mL in assay [1]; 0.43 nM and 0.064 µg/mL in assay [2].

B6: 3A10-G10 (antibody, V domains shown)
VH: QVQLVESGGGVVQPGRSLRLSCAASGFTFSHYGMHWVRQAPGKGPEWVAIIWYDGSNKYYADSVKGRFTISRDNSKNTLDLQMNSLRAEDTAVYYCARDGWTTMVRGLNVFDIWGQGTMVTVSS
VL: B5 VL with G28D, L96P, G100Q, K103R, V104L
notes: Human IgG from hybridoma; also called 3A10-1G10
Turning to B6, the EC50 in assay [2] was 0.63 nM and 0.094 µg/mL.

B7: 2C2-1A10 (antibody, V domains shown)
VH: B5 VH with L29F, H32Y, R98G
VL: B5 VL
notes: Human IgG from hybridoma
On to B7, for which the 50% effective concentration (EC50) in assay [1] was 0.034 µg/mL; in assay [2], 0.3 nM and 0.045 µg/mL.

B8: 3H8-1B11 (antibody, V domains shown)
VH: EVQLVESGGGLVQPGGSLRLSCAASGFTFSSYWMAWVRQAPGKGLEWLGNIKQDGSEKYYVDSVKGRFTISRDNAKNSLYLQMNSLRAEDTAVYYCVRELGMDWYFDLWGRGTLVTVSS
VL: EIVLTQSPATLSLSPGERATLSCRASQSVDSYLAWYQQKPGQAPRLLIYDASNRATGIPARFSGSGSGTDFTLTISNLEPEDFAVYYCQQRSNWPPTFGQGTKVEIK
notes: Human IgG from hybridoma
On to B8, for which the EC50 in assay [1] is 0.065 µg/mL; in assay [2] it was 0.46 nM and 0.069 µg/mL.

The values are drawn from US20120213771A1 (CELLDEX THERAPEUTICS, published 2012).
